This experiment has as its target wild-type KRAS4b GTPase domain (1-169), GMPPNP-bound (human) (UniProt P01116). The experiment can be described thus: ITC. For orientation: ITC needs no label: the signal is the heat of the interaction.

By Kd is commonly meant the equilibrium constant for the complex coming apart. High values mean a looser complex, low ones a tighter complex. The substance “NF1-GRD (GAP-related domain of neurofibromin 1) (from UniProt P21359-2 1198-1530) (domain or fragment)” came in with an equilibrium dissociation constant (Kd) of 1000 nM.

The values above are taken from publication doi:10.1101/737098.
